Values quoted from earlier work as cited in paper PMC10839879.

Molecular target: RNH1 (Homo sapiens) (UniProt P13489)
Chain of UniProt P13489 (P13489 2-461): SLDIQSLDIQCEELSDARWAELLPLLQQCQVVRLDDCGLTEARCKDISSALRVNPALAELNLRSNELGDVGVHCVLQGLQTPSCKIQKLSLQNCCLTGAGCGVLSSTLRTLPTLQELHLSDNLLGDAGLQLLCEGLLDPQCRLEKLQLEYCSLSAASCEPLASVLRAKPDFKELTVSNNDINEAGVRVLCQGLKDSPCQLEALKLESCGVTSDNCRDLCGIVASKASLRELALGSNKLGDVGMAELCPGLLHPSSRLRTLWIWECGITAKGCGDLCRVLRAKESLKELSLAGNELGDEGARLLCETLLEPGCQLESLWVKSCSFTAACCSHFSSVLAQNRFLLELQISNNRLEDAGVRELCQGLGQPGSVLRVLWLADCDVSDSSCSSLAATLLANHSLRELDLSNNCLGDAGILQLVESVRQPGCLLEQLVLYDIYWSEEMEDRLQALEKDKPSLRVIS

Kd: 0.001 pM
Substance: angiogenin (from UniProt P03950)
